Assay results from the DeepSol protein solubility set.

Test: soluble on expression in E. coli; label from the status in PepcDB or PDB records

Sequence | soluble on expression in E. coli
SNQDEPRCLFVKDADSQVDLQITFRGFSRPDPQLAASRLLRRVLAGGGCSRLHLNLRERLGIVYSVDAQVAAYDETGCFSIELSTAPENLLTAVEEVLGETRKLAAEPVGAEELRRVRQGYFFDLAYSEDSTFEMQVRYGWGELMGMVKGIDEERAEVEAVDEGTLQAVARRLFAPAALNLVAVGPVTATAKRRIEQLLRRYAKEFPTSSQPPGP | not soluble
SNRLPDDYDPYAVEEPSDEEPALSSSEDEVDVLLHGTPDQKRKLIRECLTGESESSSEDEFEKEMEAELNSTMKTMEDKLSSLGTGSSSGNGKVATAPTRYYDDIYFDSDSEDEDRAVQVTKKKKKKQHKIPTNDELLYDPEKDNRDQAWVDAQRRGYHGLGPQRSREQQPVPNSDAVLNCPACMTTLCLDCQRHESYKTQYRAMFVMNCSINKEEVLRYKASENRKKRRVHKKMRSNQEDAAEKAETDVEEIYHPVMCTECSTEVAVYDKDEVFHFFNVLASHS | soluble
SPGSAAKGSELSERIESFVETLKRGGGPRSSEEMARETLGLLRQIITDHRWSNAGELMELIRREGRRMTAAQPSETTVGNMVRRVLKIIREEYGRLHGRTDESDQQESLHKLLTSGGLNEDFSFHYAQLQSNIIEAINELLVELEGTMENIAAQALEHIHSNEVIMTIGFSRTVEAFLKEAARKRKFHVIVAECAPFCQGHEMAVNLSKAGIETTVMTDAAIFAVMSRVNKVIIGTKTILANGALRAVTGTHTLALAAKHHSTPLIVCAPMFKLSPQFPNEEDSFHKFVAPEEVLPFTEGDILEKVSVHCPVFDYVPPELITLFISNIGGNAPSYIYRLMSELYHPDDHVL | soluble
SPMPAGRPRFLRSMALSSQTREWLEKGMPTEAEAGVPIRLQERAANTAPQARAEERHTQPADAAAPHARAERGRTLQAPASTSPLYTGAVPRANRIVQQLVEAGADLANIRTMFRNMLRGEEMILSRAEQNVFLQHFPDMLPCGIDRNSELAIALREALRRADSQQAARAPARTPPRSS | soluble
SPRIAEKMLRKRHGQAAFAAYVEKREQTRAAARAYDQRALQGDLEIIYNFGQDLIDEHAIEVSAEQVTVPGFSQPLVYKKDARFSDMLD | not soluble
SQPNSSIIKYPNKVRNLPGIAASLRTVGYSTHHLYGGDADFTNVRSYLYGTGYDEVTDVSSFPFKTRLSKWGTPDHISFPRLLDDCRRLEKEKKPYFYSFLTLSSHEPFDVPSQHHPDPYLNSVFYTDSCFGDYIRGMQQSPQWKNTLIIAVSDHGYPYPADQAMPDQPGRYGIVMLWAGGAILRPIRFEEVVSQSDLPATLLAQLGLTHDEFVFSKDVFRRNSPHFAYFSFPGLVGLATSEGTTIYDFAGDKIVYGHEAPLADQRAIAAKVMLQSVMKDMLSR | not soluble
SREPVDILREQKINAEWALKQQSDKLAAQFDNMDDAYLRERKQDMLQVVRRIHNNLIGQGNELEVADNLFDETVLIANDLSPADTVLFKEQR | not soluble
SREWRTKIQAQIDRFPIGDREGEWQTMIQKMVSSYLVHHGYCATAEAFARSTDQTVLEELASIKNRQRIQKLVLAGRMGEAIETTQQLYPSLLERNPNLLFTLKVRQFIEMVNGTDSEVRCLGGRSPKSQDSYPVSPRPFSSPSMSPSHGMNIHNLASGKGSTAHFSGFESCSNGVISNKAHQSYCHSNKHQSSNLNVPELNSINMSRSQQVNNFTSNDVDMETDHYSNGVGETSSNGFLNGSSKHDHEMEDCDTEMEVDSSQLRRQLCGGSQAAIERMIHFGRELQAMSEQLRRDCGKNTANKKMLKDAFSLLAYSDPWNSPVGNQLDPIQREPVCSALNSAILETHNLPKQPPLALAMGQATQCLGLMARSGIGSCAFATVEDYLH | soluble
SRLKLFSILSMMLLRPKDTVDSQGQFRGYLDMVINDILAPNLQWHAGRTAAAIRTAAISCLWALISSDILSAKQVQEAQETLMPQVLATLEDDSQTTRLMSCRIINMFLKNSGDTMEPEKFLKVYPELLKRLDDVSNDVRMAAASALLTWLKCIESLDGKSAYQSSVQFLYRELLVHLDDPESAIQDTVLEVLKEGSVLFPDVLVRETEAVVHKHRSATYCEQLLQHMQTMAAAR | soluble
SRRMKANARERNRMHGLNAALDNLRKVVPCYSKTQKLSKIETLRLAKNYIWALSEILRSG | soluble
